These results are taken from US20200131249A1 (EVOLVERITAS KFT, published 2020).

Residue numbers refer to the chain shown, from its start. Where no end group is shown, it is not given here.

B1: protein according to SEQ ID NO: 11 (TFPI-D2 variant with the inhibitor loop FCRAVKR) (designed binder)
chain: KPDFCFLEEDPGFCRAVKRRYFYNNQTKQCERFKYGGCLGNMNNFETLEECKNICEDG
modifications: ends and bridges not checked; cysteine pairing not given here
notes: Made in E. coli as a His6-S100A4 fusion and freed by TEV protease
B2: protein according to SEQ ID NO: 14 (TFPI-D2 variant with the inhibitor loop PCRAVKR) (designed binder)
chain: B1 chain with F13P
modifications: ends and bridges not checked; cysteine pairing not given here
notes: Made as m1
B3: rat MASP-2 catalytic fragment CCP1-CCP2-SP (enzyme)
chain: MTQPCPDPTAPPNGHISPVQATYVLKDSFSVFCKTGFELLQGSVPLKSFTAVCQKDGSWDRPIPECSIIDCGPPDDLPNGHVDYITGPEVTTYKAVIQYSCEETFYTMSSNGKYVCEADGFWTSSKGEKSLPVCKPVCGLSTHTSGGRIIGGQPAKPGDFPWQVLLLGETTAAGALIHDDWVLTAAHAVYGKTEAMSSLDIRMGILKRLSPHYTQAWPEAVFIHEGYTHGAGFDNDIALIKLKNKVTINRNIMPICLPRKEAASLMKTDFVGTVAGWGLTQKGFLARNLMFVDIPIVDHQKCATAYTKQPYPGAKVTVNMLCAGLDAGGKDSCRGDSGGALVFLDNETQRWFVGGIVSWGSINCGGSEQYGVYTKVTNYIPWIENIINNF
notes: Mw 42309 Da; also called rat MASP-2cf; MASP2cf
B4: protein according to SEQ ID NO: 17 (TFPI-D2 variant with the inhibitor loop VCRAVKR) (designed binder)
chain: B1 chain with F13V
modifications: ends and bridges not checked; cysteine pairing not given here
notes: Made as m1

For assay [1], the target named is T1, human MASP-2 catalytic fragment CCP1-CCP2-SP (human, UniProt O00187 287-686, limits assumed).
T1 construct: domain: CCP1-CCP2-SP; also called human MASP-2cf; human MASP2cf
T1 sequence (O00187 287-686 limits assumed): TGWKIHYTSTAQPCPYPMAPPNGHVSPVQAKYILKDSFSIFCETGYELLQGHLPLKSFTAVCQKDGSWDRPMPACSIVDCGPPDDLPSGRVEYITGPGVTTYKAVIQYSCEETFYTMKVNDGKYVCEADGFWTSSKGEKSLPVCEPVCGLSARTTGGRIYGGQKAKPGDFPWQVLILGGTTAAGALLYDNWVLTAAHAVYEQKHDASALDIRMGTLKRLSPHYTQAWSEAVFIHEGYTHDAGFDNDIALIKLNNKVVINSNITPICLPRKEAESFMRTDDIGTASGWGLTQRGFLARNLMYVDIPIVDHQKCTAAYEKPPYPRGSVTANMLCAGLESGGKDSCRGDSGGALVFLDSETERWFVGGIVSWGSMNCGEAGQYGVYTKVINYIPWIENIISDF
The assay can be described thus: ratio of Ki values, enzyme inhibition. The protocol:
(§1) For determining the KI of the inhibitors on MASP enzymes we used catalytic enzyme fragments containing the three C-terminal domains: CCP1-CCP2-SP. The synthetic substrate used in the measurements was Z-L-Lys-SBzl hydrochloride (Sigma, C3647), from which a 10 mM stock solution was prepared. The reactions were performed in a volume of 0.2 ml at room temperature in a buffer consisting of 20 mM HEPES; 145 mM NaCl; 5 mM CaCl₂; 0.05% Triton-X100. The substrate cleaved by the enzyme entered into a reaction with the 5,5′-Dithiobis(2-nitrobenzoic acid) (DTNB, Ellman's reagent, Sigma—D8130) auxiliary substrate present in the solution in 2-fold excess to Z-L-Lys-SBzl. The release of the chromophore group created in this way was monitored via the change of absorbance at 410 nm using a BioTek Synergy H4 multimode microplate reader.
(§2) A dilution sequence was prepared from the individual inhibitors, the enzyme was added to it, and it was incubated for 2 hours at room temperature. The samples were transferred on a 96-well microtiter plate (Nunc 269620). The reactions were started by adding the mixture of the substrate and the auxiliary substrate to the samples. The concentration of the substrate and the length of the measuring period were chosen so that under the given conditions the enzyme should consume less than 10% of the substrate. In this case we used 250 μM Z-L-Lys-SBzl and 500 μM DTNB in the reactions. In the course of measuring, a method developed for the characterisation of tight-binding inhibitors was used (Empie, 1982). The concentration of the product was measured as a function of reaction time. The slope of the straight line determined for the initial phase of the reaction was normalised with the slope obtained for the uninhibited enzyme reaction, and this value was multiplied with the total enzyme concentration. As a result of this we obtained the free enzyme concentration, which was plotted as a function of the total inhibitor concentration and the Ki value was determined according to the following equation: […]

Assay [2] deals with T1, human MASP-2 catalytic fragment …. The assay is described as follows: enzyme inhibition, Z-L-Lys-SBzl/DTNB, tight-binding fit, catalytic fragment CCP1-CCP2-SP. The procedure: as §1, §2
(§3) where E is the free (uninhibited) enzyme concentration, and E₀ is the total enzyme concentration. The stock concentration of the inhibitors was determined by titration with bovine trypsin of known concentration. The results were calculated as the average of parallel measurements.

For assay [3], the target named is B3. Described as above. The protocol: as §1, §2, §3
The target in assay [4] is T2, human MASP-1 catalytic fragment CCP1-CCP2-SP (human, UniProt P48740 298-699, limits assumed).
T2 construct: domain: CCP1-CCP2-SP
T2 sequence (looked up): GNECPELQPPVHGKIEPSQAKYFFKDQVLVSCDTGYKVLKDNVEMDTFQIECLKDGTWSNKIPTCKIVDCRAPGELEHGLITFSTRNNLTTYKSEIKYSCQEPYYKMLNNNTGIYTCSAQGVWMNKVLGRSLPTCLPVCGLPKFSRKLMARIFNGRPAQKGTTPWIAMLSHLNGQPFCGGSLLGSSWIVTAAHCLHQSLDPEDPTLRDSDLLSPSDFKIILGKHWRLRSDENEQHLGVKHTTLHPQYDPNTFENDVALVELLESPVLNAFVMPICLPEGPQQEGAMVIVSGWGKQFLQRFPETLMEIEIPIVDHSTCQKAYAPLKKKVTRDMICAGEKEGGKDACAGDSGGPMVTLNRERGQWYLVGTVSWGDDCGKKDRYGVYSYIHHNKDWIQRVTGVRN
The assay can be described thus: enzyme inhibition, Z-L-Lys-SBzl/DTNB, catalytic fragment. The protocol:
as §1, §2

For assay [5], the target named is T3, human MASP-3 catalytic fragment CCP1-CCP2-SP (human, UniProt P48740-2 298-728, limits assumed).
T3 construct: domain: CCP1-CCP2-SP
T3 sequence (looked up): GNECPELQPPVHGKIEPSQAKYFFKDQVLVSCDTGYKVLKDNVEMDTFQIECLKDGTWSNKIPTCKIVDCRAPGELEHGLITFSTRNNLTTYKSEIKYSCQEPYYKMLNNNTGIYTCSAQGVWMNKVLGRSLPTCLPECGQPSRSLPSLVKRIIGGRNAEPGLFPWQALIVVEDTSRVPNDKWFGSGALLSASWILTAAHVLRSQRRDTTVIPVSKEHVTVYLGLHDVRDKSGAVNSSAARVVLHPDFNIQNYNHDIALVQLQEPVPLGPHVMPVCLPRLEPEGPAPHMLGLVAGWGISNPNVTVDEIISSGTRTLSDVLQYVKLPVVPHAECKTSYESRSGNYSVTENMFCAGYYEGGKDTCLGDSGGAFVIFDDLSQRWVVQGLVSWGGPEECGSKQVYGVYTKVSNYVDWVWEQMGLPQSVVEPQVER
Described as above. The protocol:
as §1, §2

In assay [6] the target is T4, human MASP-2 enzyme as present in normal human serum (human, UniProt O00187 16-686). The assay can be described thus: cell-based or functional assay.
T4 sequence (O00187 16-686 limits assumed): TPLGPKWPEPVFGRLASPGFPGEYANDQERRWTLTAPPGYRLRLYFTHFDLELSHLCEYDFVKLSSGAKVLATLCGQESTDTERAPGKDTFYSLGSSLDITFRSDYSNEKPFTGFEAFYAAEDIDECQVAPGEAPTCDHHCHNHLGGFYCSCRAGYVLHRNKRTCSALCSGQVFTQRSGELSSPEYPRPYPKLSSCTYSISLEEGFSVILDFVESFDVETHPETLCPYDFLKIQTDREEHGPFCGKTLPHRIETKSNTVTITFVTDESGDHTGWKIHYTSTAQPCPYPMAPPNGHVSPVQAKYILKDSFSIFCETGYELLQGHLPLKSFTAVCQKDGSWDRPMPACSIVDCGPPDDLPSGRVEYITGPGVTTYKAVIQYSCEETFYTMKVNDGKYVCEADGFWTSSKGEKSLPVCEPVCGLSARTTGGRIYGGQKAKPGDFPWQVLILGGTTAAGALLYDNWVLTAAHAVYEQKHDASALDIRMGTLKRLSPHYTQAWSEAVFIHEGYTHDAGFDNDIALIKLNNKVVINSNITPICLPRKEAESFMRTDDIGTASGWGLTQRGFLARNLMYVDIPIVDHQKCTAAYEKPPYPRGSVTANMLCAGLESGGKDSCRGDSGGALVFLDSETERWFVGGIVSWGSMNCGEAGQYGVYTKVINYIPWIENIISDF
In assay [7] the target is bovine trypsin (Sigma-T1426) (bovine, UniProt P00760 24-246). The assay is described as follows: fluorometric residual activity, Z-Gly-Pro-Arg-AMC, tight-binding fit. The procedure: The KI values of the inhibitors on bovine trypsin were also determined. In these experiments, we used bovine trypsin (Sigma—T1426). The concentration of trypsin was determined by fluorescent active-site titration based on Jameson 1973. The measurements were done in 200 μL final assay volume of 50 mM Tris, 10 mM CaCl2, 0.005% Triton X-100 pH 8.0 buffer on 96-well black microtiter plates (Thermo Scientific Sterilin—611F96BK) using a BioTek Synergy H4 multimode microplate reader.
Chain of bovine trypsin (Sigma-T1426) (P00760 24-246): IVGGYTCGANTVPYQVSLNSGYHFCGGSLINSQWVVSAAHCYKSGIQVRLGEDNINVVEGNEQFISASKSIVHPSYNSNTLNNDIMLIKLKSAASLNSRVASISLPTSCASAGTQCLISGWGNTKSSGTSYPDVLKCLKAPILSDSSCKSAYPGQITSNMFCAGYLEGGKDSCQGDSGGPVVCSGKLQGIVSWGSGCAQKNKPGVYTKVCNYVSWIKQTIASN
Constant predefined concentrations of the enzymes were mixed with serial dilutions of the inhibitors and co-incubated at room temperature until reaching equilibrium. The incubation times were 5 h in the case of the protein according to SEQ ID NO: 11, 8 h in the case of TFPI-D2 and the protein according to SEQ ID NO: 17 and 24 h in the case of the protein according to SEQ ID NO: 14. Then, 10 μM (final concentration) of Z-Gly-Pro-Arg-AMC substrate was added to the samples. The concentration of the free enzyme was determined through measuring the residual enzyme activity in a fluorometric kinetic assay at 380 nm excitation wavelength and 460 nm emission wavelength in two parallel experiments. Analyses of the data were done as described above.

The target in assay [8] is B3. The assay can be described thus: ratio of Ki values, enzyme inhibition. The protocol: as §1, §2
Assay [9] addresses rat MASP-2 as present in rat serum (rat, UniProt Q9JJS8 20-685). The assay can be described thus: cell-based or functional assay.
For assay [10], the target named is T3, human MASP-3 catalytic fragment …. The assay is described as follows: enzyme inhibition, Z-L-Lys-SBzl/DTNB, catalytic fragment; approximation based on a single measurement. The protocol: as §1
A dilution sequence was prepared from the individual inhibitors, the enzyme was added to it, and it was incubated for 2 hours at room temperature. The samples were transferred on a 96-well microtiter plate (Nunc 269620). […] The concentration of the product was measured as a function of reaction time. The slope of the straight line determined for the initial phase of the reaction was normalised with the slope obtained for the uninhibited enzyme reaction, and this value was multiplied with the total enzyme concentration. […]

The target in assay [11] is T5, TFPI-D2, second Kunitz domain (residues 121-178) of human Tissue Factor Pathway Inhibitor-1 (human, UniProt P10646 121-178).
T5 construct: Recombinant, made as m1; also called parental TFPI-D2; human TFPI-D2
T5 sequence: B1 chain with F13I, A16G, V17Y, K18I, R19T
The assay is described as follows: enzyme inhibition.

In assay [12] the target is T4, human MASP-2 enzyme as present in …. The assay can be described thus: cell-based or functional assay. This is another data set of the same source.

For the molecule B1, in assay [1], the “fold more potent than SGMI-2” value was 3 fold. Moreover, the Ki in [2] was found to be 2 nM; in assay [3], 640 nM; in assay [7] it was 0.094 nM. Further, the binding result in [4] and in [5] was “no binding” throughout. In addition, the “IC50 (nM), lectin pathway activity in diluted human serum (WIELISA, C5b-9)” value (“IC50 (nM), lectin pathway activity” for short) in assay [6] came out at 35 nM.

B2: the “fold reduction of binding affinity against the protein of SEQ ID NO: 11” value in assay [1] is 4 fold. In [8], the “fold higher binding affinity than human TFPI-D2” value was found to be 25 fold. Moreover, the “fold more potent than SGMI-2” value in [8] was roughly 3 fold. Also, the “IC50 (nM), C3 deposition, lectin pathway in diluted rat serum on mannan” value in assay [9] was 869 nM. The “IC50 (nM), C4 deposition, lectin pathway in diluted rat serum on mannan” value in assay [9] stood at 108 nM. In assay [9], the “IC50 (nM), C5b-9 deposition, lectin pathway in diluted rat serum on mannan” value is 940 nM. Besides, the Ki was 7.9 nM in assay [2], 7.2 nM in [3], 0.004 nM in [7] and roughly 30000 nM in [10]. Further, in [4], the binding result is recorded as “no binding”. Besides, the “IC50 (nM), lectin pathway activity” value in [6] came to 90 nM.

Regarding B3, the binding result in assay [11] is listed as “binds”.

Take B4: in assay [1], the “fold reduction of binding affinity against the protein of SEQ ID NO: 11” value came to 18 fold. The “fold higher binding affinity than human TFPI-D2” value in assay [8] is 25 fold. For the same molecule, in assay [8], the “fold more potent than SGMI-2” value is roughly 3 fold. The inhibitory constant (Ki) turned out to be 36.7 nM in [2], 7.5 nM in assay [3] and 0.017 nM in assay [7]. For the same molecule, the “fold of the lectin pathway IC50 against SGMI-2” value in assay [12] worked out at 2 fold. The binding result in assay [4] and in [5] was “no binding” throughout. Moreover, the “IC50 (nM), lectin pathway activity” value in assay [6] was 380 nM.

As for GSGEVTCEPGTTFKDKCNTCRCGSDGKSAVCTKLWCNQ (designed binder, Comparator from WO 2012/007777) [SGMI-2 (SGCI-based MASP inhibitor 2)], in assay [9], the “IC50 (nM), C3 deposition, lectin pathway in diluted rat serum on mannan” value was determined as 2240 nM; the “IC50 (nM), C4 deposition, lectin pathway in diluted rat serum on mannan” value was found to be 457 nM; the “IC50 (nM), C5b-9 deposition, lectin pathway in diluted rat serum on mannan” value turned out to be 4000 nM. The inhibition constant (Ki) in assay [2] was determined as 8.1 nM. Moreover, the Ki in [3] was 22.7 nM. In [4], the binding result is listed as “no binding”. Besides, the “IC50 (nM), lectin pathway activity” value in [6] stood at 174 nM. Moreover, the Ki in assay [7] worked out at 100 nM.

A word on the Ki: it is a measure of affinity in units of concentration, obtained from inhibition or displacement.
